Experimental data reported in patent US6093692A, “Method and compositions for lipidization of hydrophilic molecules” (The University of Southern California, priority 1997, dated 2000).

Tested on: Caco-2 cells
Format: cell-based, Human
Procedure: Human colon carcinoma cells (Caco-2) were detached from 25 cm^2 stock culture flasks using a 10 min incubation at 37° C. with 0.5 ml of a trypsin/EDTA solution (0.5% trypsin, 5.3 mM EDTA). The cells were then suspended in 5 ml of Dulbecco's minimum essential medium, supplemented with 15% fetal bovine serum (FBS), L-glutamine (1%), and essential amino acids (1%), and counted using a coulter counter.
Radioiodination of BBI and BBIssPal was carried out using the chloramine-T method [McConahey, P. C. and Dixon, F. J., Meth. Enzymol., 70:221-247 (1980)]. Confluent, 14-day old cell monolayers were washed once with, and then incubated in, serum-free Dulbecco medium at 37° C. for 30 min. Subsequently, the incubation medium was replaced with serum free medium containing ^125 I-BBI (10 μg/ml), either as native-BBI or as BBIssPal or BBIssOleic, and the monolayers were incubated for a further 60 min at 37° C. The monolayers were then washed three times with ice-cold PBS, and then exposed to trypsin (0.5%, EDTA 5.3 mM) for 10 min at 37° C. The detached cells were transferred to tubes, isolated by centrifugation, washed three times using ice-cold PBS, assayed for accumulated radioactivity using a gamma counter, and finally assayed for cell protein using the published method [Lowry, O. H., et al., J. Biol. Chem., 193:265-275 (1951)].
In some experiments the uptake of reduced ^125 I-BBIssPal into cells was determined. ^125 I-BBIssPal was reduced with DTT (50 mM) at 60° C. for 5 min followed by a further 25 min at 37° C. In control experiments, ^125 I-BBIssPal was exposed in medium to the same temperatures without being exposed to DTT.
The uptake of ^125 I-BBIssPal in the presence of BSA (fatty acid free) was determined as follows. ^125 I-BBIssPal was incubated with medium containing 0.1% BSA for 30 min at 37° C. before being added to the cell monolayers. In some uptake experiments, BSA was first mixed with a 3-fold molar excess of palmitic acid, and then incubated with the conjugates prior to the experiments. In the experiments where the uptake of ^125 I-BBIssPal was determined in medium containing FBS, the conjugates was simply added to the medium containing the required amount of FBS.
The cell monolayers were incubated with ^125 I-labeled conjugates at 10 μg/ml for 60 min at 37° C. The results presented are the average of three monolayers ±SEM. The uptake experiments were carried out in Dulbecco medium, in the presence and absence of added FBS.
The cell uptake of ^125 I-BBI, either as the native protein or as BBIssPal was determined before and after reduction with DTT (50 mM) for 5 min at 60° C. and 25 min at 37° C.
The uptake experiments were carried out in Dulbecco medium, in the presence and absence of added fatty acid-free BSA (BSA) or fatty acid-loaded BSA (BSA/FA). The results of studies of the uptake of ^125 I-BBI, either as the native-BBI or in conjugated form to palmitic or oleic acid, in Caco-2 cells in the presence of serum-free medium are presented in FIG. 1. The results are shown as the average ng of BBI internalized ±SEM, n=3. The uptake of ^125 I-BBIssPal into the cells was approximately 100-fold higher than that of ^125 I-BBI. […] The difference between the uptake of ^125 I-BBIssPal and ^125 I-BBIssOleic were significant.

B1: BBIssPal: the palmityl disulfide conjugate of BBI (conjugate, UniProt P01055 40-110, looked up)
Bowman-Birk type proteinase …: DDESSKPCCDQCACTKSNPPQCRCSDMRLNSCHSACKSCICALSYPAQCFCVDITDFCYEPCKPSEDDKEN
modifications: palmityl disulfide; 125I
notes: the palmityl disulfide conjugate of BBI
Internalization, fold over that of BBI: 35 fold | Reduction of uptake after reduction with DTT: approximately 80% | Reduction of uptake by defatted-BSA: 82% | Uptake, fold higher than native-BBI: 10 fold
